Here are results for nine molecules from patent publication US20140056903A1 (Regeneron, published 2014).

The target of test [1] is T1, monkey GFRα3 expressed with a C-terminal myc-myc-hexahistidine tag (monkey (Mf), UniProt O60609 32-374 (human entry), limits assumed).
T1 construct: also called MfGFRα3-mmh; MfGFRα3-mmH
T1 chain: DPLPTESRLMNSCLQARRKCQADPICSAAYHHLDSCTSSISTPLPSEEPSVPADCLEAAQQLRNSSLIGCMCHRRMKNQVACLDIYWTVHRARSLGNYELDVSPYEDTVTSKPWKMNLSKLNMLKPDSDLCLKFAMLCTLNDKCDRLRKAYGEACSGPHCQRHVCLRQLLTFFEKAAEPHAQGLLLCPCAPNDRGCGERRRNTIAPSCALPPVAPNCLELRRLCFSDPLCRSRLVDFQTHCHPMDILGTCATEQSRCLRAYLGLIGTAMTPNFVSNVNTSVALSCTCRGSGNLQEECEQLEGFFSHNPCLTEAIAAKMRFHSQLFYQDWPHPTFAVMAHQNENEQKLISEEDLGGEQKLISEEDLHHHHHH
Put plainly: SPR, Ab captured, 25C. The method, boiled down:
(§1)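 Capture: anti-mIgG or anti-hIgG on CM5. Analyte: mmh antigen 200–7.4 nM, hFc antigen 100–3.7 nM, 3-fold series. Assoc ≤4 min, dissoc ≤20 min. 1:1 fit; KD = kd/kₐ, t½ = ln2/(60*kd).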
Background: In SPR one partner is held on a chip, and binding of the other changes the refractive index at the surface.

For test [2], the target named is T2, human GFRα3 expressed with a C-terminal mFc tag (human).
T2 construct: also called hGFRα3-mFc
T2 chain: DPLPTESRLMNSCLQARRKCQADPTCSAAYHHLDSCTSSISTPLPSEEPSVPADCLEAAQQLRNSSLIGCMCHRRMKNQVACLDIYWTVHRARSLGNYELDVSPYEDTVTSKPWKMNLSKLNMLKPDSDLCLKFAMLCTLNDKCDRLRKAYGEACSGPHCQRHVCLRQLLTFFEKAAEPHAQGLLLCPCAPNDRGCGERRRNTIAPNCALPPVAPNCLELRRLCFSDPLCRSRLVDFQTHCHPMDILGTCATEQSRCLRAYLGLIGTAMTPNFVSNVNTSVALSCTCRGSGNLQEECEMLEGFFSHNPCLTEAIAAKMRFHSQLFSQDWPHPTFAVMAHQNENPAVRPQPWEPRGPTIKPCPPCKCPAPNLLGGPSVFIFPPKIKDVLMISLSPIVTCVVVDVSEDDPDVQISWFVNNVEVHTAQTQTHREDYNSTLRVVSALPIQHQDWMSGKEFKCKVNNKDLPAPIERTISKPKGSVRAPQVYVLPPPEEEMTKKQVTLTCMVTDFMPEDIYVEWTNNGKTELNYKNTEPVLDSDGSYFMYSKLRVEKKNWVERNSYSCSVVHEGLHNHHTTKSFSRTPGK
Put plainly: SPR, Ab captured, 25C. The method, boiled down:
as §1

Test [3] has as its target T3, human GFRα3 expressed with a C-terminal myc-myc-hexahistidine tag (human, UniProt O60609 32-374, biotinylated (sites not given) in ELISA format 2 and in the Octet cross-competition; not in SPR).
T3 construct: also called hGFRα3-mmh; hGFRα3-mmH
Put plainly: Octet cross-competition; biotin-hGFRα3-mmH pre-saturated with first antibody H4H2294S. As to the method:
(§2) A cross-competition assay was conducted to assess the ability of select antibodies to compete with one another for binding to human GFRα3 using an Octet RED384 biosensor (Fortebio Inc.). The entire experiment was performed at 25° C. with the flow rate of 1000 rpm in Octet HBST buffer (0.01 M HEPES pH7.4, 0.15M NaCl, 3 mM EDTA, 0.05% v/v Surfactant P20, 0.1 mg/mL BSA). To assess whether 2 antibodies were able to compete with one another for binding to their respective epitopes on biotinylated recombinant human GFRα3 expressed with a C-terminal myc-myc-hexahistidine tag (biotin-hGFRα3-mmH; SEQ ID:370), around ˜1.2 nm of biotin-hGFRα3-mmH was first captured onto streptavidin-coated Octet sensor tips (Fortebio Inc, #18-5019) by submerging the tips for 1 minute into a 10 μg/mL solution of biotin-hGFRα3-mmH. The antigen coated sensor tips were then placed into wells containing 25 μg/mL solution of a first anti-GFRα3 monoclonal antibody for 4 minutes to saturate the biotin-hGFRα3-mmH surface. The sensor tips were then subsequently dipped into wells containing 25 μ/mL solution of a second anti-GFRα3 monoclonal antibody. The sensor tips were washed in Octet HBST buffer in between every step of the experiment. The real-time binding response was monitored during the course of the experiment and the binding response at the end of every step was recorded as shown in FIG. 9. The response of mAb-2 binding to biotin-hGFRα3-mmH pre-complexed with the first antibody was compared and competitive/non-competitive behavior of different anti-GFRα3 monoclonal antibodies was determined.

The target of test [4] is T3, human GFRα3 expressed with a C-terminal …. Put plainly: Octet RED384; 25 µg/mL first antibody on streptavidin-captured biotin-hGFRα3-mmH. On the procedure:
as §2
For orientation: Biolayer interferometry detects binding as a change in optical thickness at a sensor tip.

Test [5] has the same target. Put plainly: Octet cross-competition; biotin-hGFRα3-mmH pre-saturated with first antibody H4H2342P. As to the method: as §2

B1: H4H2364S (antibody, human IgG4, V domains shown)
VH: EVQLVESGGGLEQPGGSLRLSCAASGFTFSSYVMSWVRQVPGKGLEWVSVISGSGGSTYYADSVKGRFTISRDNSKNTLYLQMNSLRAEDTAVYYCAKPSSYSSSNFHYGMDVWGQGTTVTVSS
VL: DIQMTQSPYSVSASVGDRVTITCRASQGISSWLAWYQQKPGRAPKLLIYAASSLQSGVPSRFSGSGSGTDFTLTISSLQPEDFATYYCQKTNSFPFTFGPGTKVEIK
notes: human IgG4 Fc (H4H)
Turning to B1, in test [1], the Kd worked out at 1.06 nM, the koff came to 0.00013 s⁻¹, the kon is 122000 M⁻¹ s⁻¹ and the t1/2 amounted to 1.48 h. Besides, in test [2], the Kd was ≤ 0.0013 nM, the koff was ≤ 1e-06 s⁻¹, the kon turned out to be 771000 M⁻¹ s⁻¹ and the t1/2 amounted to 192 h.

B2: H4H2345S (antibody, human IgG4, V domains shown)
VH: EVQLVESGGGLVRPGRSLRLSCAASGFTFDNYAMHWVRQVPGKGLEWVSGITWNSVSLGYADSVKGRFTISRDNAQNSLYLQMNSLRTVDTALYYCAKDRWGGSYYFDFWGQGTLVTVSS
VL: DIVMTQSPSSLSASVGDRVTITCRASQGISNYLAWYQQKPGKVPKLLIYSASTLQSGVPSRFSGSGSGTDFTLTISNLQPEDFATFFCQKYNSAPTFGGGTKVEIK
notes: human IgG4 Fc (H4H)
Turning to B2, in test [1], binding was characterised by a dissociation constant (Kd) of 28.7 nM, the koff came out at 0.00279 s⁻¹, the kon is 97500 M⁻¹ s⁻¹ and the t1/2 came to 0.0667 h. In test [2], this molecule gave a Kd of 0.0584 nM, a koff of 3.01e-05 s⁻¹, a kon of 516000 M⁻¹ s⁻¹ and a t1/2 of 6.4 h.

B3: H4H2344S (antibody, human IgG4, V domains shown)
VH: EVQLVESGGGVVQPGRSLRLSCAASGFSFSDYVMHWVRQAPGKGLEWVASIWFDGSNEFYADSVKGRFTISRDNSKNTLFLQMNSLRAEDTAVYYCAKKGVLVATSAFDIWGQGTMVTVSS
VL: DIQMTQSPSSLSASVGDRVTITCRASQSINNYLNWYHQKPGKAPKLLIYAASSLQSGVPSRFSGSGSGTDYTLTISSLQPEDFGNYYCQQSYRTSMYTFGQGTKVEIK
notes: human IgG4 Fc (H4H)
In test [1], B3 returned a Kd of 1.1 nM, a koff of 0.000115 s⁻¹, a kon of 104000 M⁻¹ s⁻¹ and a t1/2 of 1.68 h. In test [2], this molecule yielded a Kd of 0.00269 nM, a koff of 1.56e-06 s⁻¹, a kon of 579000 M⁻¹ s⁻¹ and a t1/2 of 123 h.

B4: H4H2354S (antibody, human IgG4, V domains shown)
VH: QVQLVESGGGVVQPGRSLRLSCAASGFSFSDYVMHWVRQAPGKGLEWVASIWFDGSNEFYADSVKGRFTISRDNSKNTLFLQMNSLRAEDTAVYYCAKKGVLVATSAFDIWGQGTMVTVSS
VL: DIQLTQSPSSLSASVGDRVTITCRASQSINNYLNWYHQKPGKAPKLLIYAASSLQSGVPSRFSGSGSGTDYTLTISSLQPEDFGNYYCQQSYRTSMYTFGQGTKVEIK
notes: human IgG4 Fc (H4H); also called H4H2354S-1
Consider B4, for which, in test [1], the Kd is 0.574 nM, the koff amounted to 6.23e-05 s⁻¹, the kon was 109000 M⁻¹ s⁻¹ and the t1/2 was found to be 3.08 h. In test [2], the affinity, expressed as Kd, was 0.0189 nM; the koff amounted to 1.09e-05 s⁻¹; the kon came to 580000 M⁻¹ s⁻¹; the t1/2 was found to be 17.6 h.

B5: H4H2346S (antibody, human IgG4, V domains shown)
VH: QVQLVESGGGVVQPGRSLRLSCAASGFSFSDYVMHWVRQAPGKGLEWVASIWFDGSNEFYADSVKGRFTISRDNSKNTLFLQMNSLRAEDTAVYYCAKKGVLVATSAFDIWGQGTMVTVSS
VL: EIVMTQSPSSLSASVGDRVTITCRASQSINNYLNWYHQKPGKAPKLLIYAASSLQSGVPSRFSGSGSGTDYTLTISSLQPEDFGNYYCQQSYRTSMYTFGQGTKVEIK
notes: human IgG4 Fc (H4H)
For the molecule B5, in test [1], the dissociation constant Kd came out at 0.556 nM, the koff came out at 5.98e-05 s⁻¹, the kon was 108000 M⁻¹ s⁻¹ and the t1/2 amounted to 3.22 h. In test [2], this molecule gave a Kd of 0.0222 nM, a koff of 1.44e-05 s⁻¹, a kon of 647000 M⁻¹ s⁻¹ and a t1/2 of 13.4 h.

B6: H4H2293P (antibody, human IgG4, V domains shown)
VH: QVQLVESGGGVVQPGRSLRLSCAASGFSFSDYVMHWVRQAPGKGLEWVASIWFDGSNELYADSVKGRFTISRDNSKNTLFLQMNSLRAEDTAVYYCAKKGVLVATSAFHIWGQGTMVTVSS
VL: AIQMTQSPSSLSASVGDRVTITCRASQNINNYLNWYHQKPGKAPNLLIYAASSLQSGVPSRFSGSGSGTDYTLTISSLQPEDFGNYYCQQSYSTSMYTFGQGTKLEIK
notes: human IgG4 Fc (H4H)
As to B6, in test [1], binding was characterised by a dissociation constant (Kd) of 0.144 nM, the koff amounted to 4.17e-05 s⁻¹, the kon was determined as 290000 M⁻¹ s⁻¹ and the t1/2 worked out at 4.62 h. Moreover, in test [2], the Kd was 0.00159 nM, the koff was determined as 1.93e-06 s⁻¹, the kon is 1.22e+06 M⁻¹ s⁻¹ and the t1/2 came out at 99.8 h.

B7: H4H2212N (antibody, human IgG4, V domains shown)
VH: EVQLLESGGGLVQPGGSLRLSCAASGFTFSSYAMSWVRQGPGKGLEWVSGISGSGGSTYNADSVKGRFTISRDNSKNTLYLQMNSLRAEDTAVYYCAKDSGTYWYYFDYWGQGILVTVSS
VL: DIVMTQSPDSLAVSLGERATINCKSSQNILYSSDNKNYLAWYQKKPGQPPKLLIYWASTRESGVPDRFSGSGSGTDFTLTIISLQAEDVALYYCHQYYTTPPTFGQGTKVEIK
notes: human IgG4 Fc (H4H)
Regarding B7, the “binding response of second antibody (nm)” value in test [3] came out at 1.92 nm; in test [5], 1.76 nm. Besides, the “Amount of Antibody 1 bound (nm)” value in test [4] came to 2.32 nm.

B8: H4H2341S (antibody, human IgG4, V domains shown)
VH: EVQLVESGAEVKKSGSSVKVSCKASGGTFSRYAISWVRQAPGQGLEWMGGIIPLFGTLNYAQKFQGRVTLTTDESTSTAYMELSSLRSEDTAVYYCAVFYYGSGSYRNWFDPWGQGTLVTVSS
VL: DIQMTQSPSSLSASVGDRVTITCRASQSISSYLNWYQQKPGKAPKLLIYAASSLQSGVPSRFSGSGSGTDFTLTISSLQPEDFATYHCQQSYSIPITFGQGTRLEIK
notes: human IgG4 Fc (H4H)
In test [1], B8 registered a Kd of 1.39 nM, a koff of 0.00013 s⁻¹, a kon of 93800 M⁻¹ s⁻¹ and a t1/2 of 1.48 h. In addition, in test [2], the Kd is ≤ 0.00168 nM, the koff was ≤ 1e-06 s⁻¹, the kon was 596000 M⁻¹ s⁻¹ and the t1/2 was 192 h.

B9: H4H2236N3 (antibody, human IgG4, V domains shown)
VH: EVQLLESGGNLVQPGGSLRLSCAASGFTFSSYAMTWVRQAPGKGLEWVSTISGSGTSTYYADSVKGRFTISRDNSRDTVFLQMNSLRAEDTAVYYCSKPSALRFLHWLAMDVWGQGTLVTVSS
VL: DIQMTQSPSSLSAFVGDRVTITCRASQDIRNYLDWFQQKPGKAPKSLIYAASNLQSGVPSRFGGSGSGTDFTLTINSLQPEDFVTYYCQQYNSYPPTFGGGTKVEIK
notes: human IgG4 Fc (H4H)
For the molecule B9, the “binding response of second antibody (nm)” value worked out at 0.05 nm in test [3] and 0.2 nm in test [5]. The “Amount of Antibody 1 bound (nm)” value in test [4] was found to be 2.64 nm.

By Kd is commonly meant the equilibrium constant for the complex coming apart. Broadly, the koff is a measure of how fast the partners let go of each other. The term kon denotes the rate constant with which the complex forms.
